Patent US20130029913A1, “ARTIFICIAL PLATELETS” (priority 2005, published 2013)
Primed or numbered codes have the meaning given here. No end group written: not given here. MAL″ = maleimide moiety on the C-terminal lysine; MAL = maleimide moiety

Legend:
Fibrinogen [1] = target: T1, Fibrinogen (Homo sapiens, UniProt P02679); experiment: Binding of fibrinogen to peptide-linked microspheres in absence and presence of thrombin (flow cytometry)
Experimental: Peptide A linked microspheres, and Peptide B linked microspheres were prepared as described in Example 2, and were mixed for 30 minutes with buffer or thrombin as shown in the table below:
The microspheres were then recovered by centrifuging at 1800 g for 10 minutes. The microspheres were resuspended in 100 μl Tris to give a final concentration of 5 mg/ml. 10 μl of Hirudin 100 U/ml was added to inhibit residual thrombin.
180 μl Fibrinogen at a concentration 0.1 mg/ml was added to 20 μl of Peptide A or Peptide B linked microspheres and mixed for 1 hr.
Fibrinogen binding was measured as follows. 5 μl microspheres were added to 50 μl HEPES buffer pH […] FITC labelled antibody to human fibrinogen was added and mixed for 20 minutes. The reaction was stopped with addition of 0.2% Formyl saline. Bound fluorescence was measured using a Beckman Coulter XL MCL Flow Cytometer.

plasma [2] = experiment: Clot formation in plasma after microparticles pre-incubated with thrombin (turbidimetric, PAP-4); format: biochemical
Experimental: Clot formation as monitored in plasma with peptide C modified microparticles that had been pre-exposed to thrombin in a buffer. Microparticle clot formation in plasma was determined turbidimetrically using the Platelet Aggregation Profiler® PAP-4 (BioData Corporation, PA) as described above.
Peptide C modified microparticles were prepared as described in Example 5 at a stock concentration of 2.5 mg/ml in HBS. Peptide C modified microparticles were pre-incubated with 0.6 U/ml thrombin for 1 h and then hirudin (10 U/ml) was added to inhibit thrombin activity. The reactions were centrifuged at 9300 g for 5 min then resuspended in HBS at 2.5 mg/ml. The baseline optical density was set with plasma, which had been prepared from citrated blood. Plasma samples (205 μl) were pre-warmed to 37° C. for 1 min before the addition of microparticles (25 μl), with the stir bar rate set at 900 rpm. After two minutes 20 uL of thrombin stock solution was added to the reaction to give a final thrombin concentration of 0.25 U/ml.

plasma [3] = experiment: Clot formation in plasma in response to thrombin (turbidimetric, PAP-4); format: biochemical
Experimental: Microparticle clot formation in plasma was determined turbidimetrically using the Platelet Aggregation Profiler® PAP-4 (BioData Corporation, PA) as described above.
Peptide C modified microparticles were prepared as described in Example 5 at a stock concentration of 2.5 mg/ml in HBS. The baseline optical density was set with plasma, which had been prepared from citrated blood. Plasma samples (205 μl) were pre-warmed to 37° C. for 1 min before the addition of microparticles (25 μl), with the stir bar rate set at 900 rpm. After two minutes 20 uL of human thrombin (Sigma) stock solution was added to the reaction to give a final thrombin concentration of 0.25 U/ml.

Thrombocytopenic blood = experiment: Platelet aggregation in thrombocytopenic blood activated by ADP (impedance aggregometer); format: cell-based; settings: microparticles pre-exposed to thrombin, 6 min
Experimental: Platelet aggregation in the presence of peptide C modified microparticles was measured using a Multiplatelet impedance aggregometer (Multiplate® Dynabyte medical, Munich).
Peptide C modified microparticles were prepared as described in Example 5 at a stock concentration of 2.5 mg/ml in HBS. The microparticles (0.75 mg) were pre-incubated for 1 h with 1 U/ml human thrombin (Sigma) in HBS (total volume 0.3 ml). To inhibit thrombin activity hirudin (Sigma) was added at a final concentration of 5 U/ml. The reaction was centrifuged at 9300 g for 5 min and the supernatant was discarded. The microparticles were resuspended in HBS to a concentration of 2.5 mg/ml.
Thrombocytopenic blood was prepared from citrated blood as follows:
Platelets were removed by centrifuging whole blood at 163 g for 20 min and discarding the platelet rich upper layer. The upper platelet rich layer was replaced by plasma that was isolated as the supernatant after centrifuging whole blood at 1800 g for 30 min.
To monitor electrical impedance; to each electrode well 0.3 ml of blood was incubated at 37° C. with microparticles (0.15 mg) and saline to give a total volume of 0.6 ml. Aggregation was recorded immediately after the addition of 30 μl of activator adenosine diphosphate solution (0.1 mM). Aggregation was recorded for 6 min; results in FIG. 9 are expressed in arbitrary units of final aggregation.

Fibrinogen [4] = target: T1, Fibrinogen; experiment: Clot formation in fibrinogen in response to thrombin (turbidity, PAP-4); format: biochemical; parameters: purchased SNBTS
Experimental: Clot formation was determined by a […] in turbidity using the Platelet Aggregation Profiler® PAP-4 (BioData Corporation, PA) as follows; Peptide C linked microparticles were prepared as described in Example 5 at a stock concentration of 2.5 mg/ml in Hepes buffered saline (HBS). The baseline optical density was set with fibrinogen (SNBTS) solution at 3 mg/ml in HBS. Fibrinogen solutions (205 μl) were pre-warmed to 37° C. for 1 min before the addition of microparticles (25 μl), with the stir bar rate set at 900 rpm. After two min 20 μL of human thrombin (Sigma) stock solution was added to give a final concentration of 0.032 U/ml.

Fibrinogen [5] = target: T1, Fibrinogen; experiment: Fibrinogen binding to microparticles after incubation with or without thrombin (flow cytometry); parameters: purchased Scottish National Blood Transfusion Service (SNBTS)
Experimental: (§1) Microparticles were mixed with fibrinogen solution after exposure to thrombin to confirm that fibrinogen-binding sequence is exposed by thrombin.
(§2) Microparticles at 0.7, 5 or 10 mg/ml were incubated with 0-0.64 U/mL thrombin at 37° C. after 2 min the thrombin was inhibited by the addition of hirudin (Sigma) at a final concentration of 10 U/mL. Microparticles were centrifuged at 9300 g for 5 min and resuspended in HBS to give 14 mg/mL. The microparticles were diluted 10-fold in 0.1 mg/mL human fibrinogen (Scottish National Blood Transfusion Service: SNBTS) and incubated at room temperature for 1 h. The amount of fibrinogen bound was determined by flow cytometry with a polyclonal antibody rabbit-anti-human fibrinogen-FITC (Dako Cytomation).

[6] = target: T2, human fibrinogen (Scottish National Blood Transfusion Service: SNBTS) (human, UniProt P02671 20-629; P02675 31-491; P02679 27-437, limits assumed); experiment: flow cytometry with rabbit anti-human fibrinogen-FITC on microparticles
T2 sequence (looked up) 1: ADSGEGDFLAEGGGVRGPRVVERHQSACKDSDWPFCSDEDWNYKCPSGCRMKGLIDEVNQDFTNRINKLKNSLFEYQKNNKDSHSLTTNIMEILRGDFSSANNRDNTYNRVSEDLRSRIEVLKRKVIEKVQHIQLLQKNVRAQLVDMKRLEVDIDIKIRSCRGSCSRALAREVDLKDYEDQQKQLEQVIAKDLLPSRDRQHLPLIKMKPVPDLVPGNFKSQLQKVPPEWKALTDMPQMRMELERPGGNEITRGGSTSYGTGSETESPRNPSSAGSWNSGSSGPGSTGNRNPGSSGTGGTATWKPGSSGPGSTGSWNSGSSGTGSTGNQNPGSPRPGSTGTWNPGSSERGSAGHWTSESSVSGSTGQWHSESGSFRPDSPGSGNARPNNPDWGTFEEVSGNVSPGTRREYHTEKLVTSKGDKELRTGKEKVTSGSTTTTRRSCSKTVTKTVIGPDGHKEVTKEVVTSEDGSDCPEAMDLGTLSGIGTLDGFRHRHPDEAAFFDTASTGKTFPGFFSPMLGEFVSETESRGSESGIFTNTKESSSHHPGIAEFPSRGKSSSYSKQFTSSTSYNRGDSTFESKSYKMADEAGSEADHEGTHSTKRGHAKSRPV
T2 sequence (looked up) 2: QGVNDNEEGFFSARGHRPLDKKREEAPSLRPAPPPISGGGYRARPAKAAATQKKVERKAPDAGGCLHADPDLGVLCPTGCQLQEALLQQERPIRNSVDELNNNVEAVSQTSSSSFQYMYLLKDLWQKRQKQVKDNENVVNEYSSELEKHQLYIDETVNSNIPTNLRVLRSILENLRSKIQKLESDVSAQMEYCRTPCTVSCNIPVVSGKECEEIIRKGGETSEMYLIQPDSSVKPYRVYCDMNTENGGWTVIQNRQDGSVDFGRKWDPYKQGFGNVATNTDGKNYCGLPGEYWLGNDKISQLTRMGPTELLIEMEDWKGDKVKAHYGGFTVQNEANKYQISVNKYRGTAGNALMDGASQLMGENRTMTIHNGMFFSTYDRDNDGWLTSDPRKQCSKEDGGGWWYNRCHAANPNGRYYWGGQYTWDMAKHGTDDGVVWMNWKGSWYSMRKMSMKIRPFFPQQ
T2 sequence (looked up) 3: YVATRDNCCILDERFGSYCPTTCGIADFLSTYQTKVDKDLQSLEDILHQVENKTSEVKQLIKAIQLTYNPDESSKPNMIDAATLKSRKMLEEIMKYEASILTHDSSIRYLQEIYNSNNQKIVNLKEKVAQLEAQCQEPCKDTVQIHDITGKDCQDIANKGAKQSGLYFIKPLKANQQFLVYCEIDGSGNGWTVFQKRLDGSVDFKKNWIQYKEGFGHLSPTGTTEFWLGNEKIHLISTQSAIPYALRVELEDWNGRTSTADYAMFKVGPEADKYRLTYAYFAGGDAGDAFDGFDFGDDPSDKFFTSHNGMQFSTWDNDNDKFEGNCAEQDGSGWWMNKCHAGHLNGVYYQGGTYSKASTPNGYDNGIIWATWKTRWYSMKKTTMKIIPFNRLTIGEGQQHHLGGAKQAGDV
Experimental: as §1, §2

T1 sequence (P02671 20-644 isoform P02671-2 partner limits assumed, one chain of several): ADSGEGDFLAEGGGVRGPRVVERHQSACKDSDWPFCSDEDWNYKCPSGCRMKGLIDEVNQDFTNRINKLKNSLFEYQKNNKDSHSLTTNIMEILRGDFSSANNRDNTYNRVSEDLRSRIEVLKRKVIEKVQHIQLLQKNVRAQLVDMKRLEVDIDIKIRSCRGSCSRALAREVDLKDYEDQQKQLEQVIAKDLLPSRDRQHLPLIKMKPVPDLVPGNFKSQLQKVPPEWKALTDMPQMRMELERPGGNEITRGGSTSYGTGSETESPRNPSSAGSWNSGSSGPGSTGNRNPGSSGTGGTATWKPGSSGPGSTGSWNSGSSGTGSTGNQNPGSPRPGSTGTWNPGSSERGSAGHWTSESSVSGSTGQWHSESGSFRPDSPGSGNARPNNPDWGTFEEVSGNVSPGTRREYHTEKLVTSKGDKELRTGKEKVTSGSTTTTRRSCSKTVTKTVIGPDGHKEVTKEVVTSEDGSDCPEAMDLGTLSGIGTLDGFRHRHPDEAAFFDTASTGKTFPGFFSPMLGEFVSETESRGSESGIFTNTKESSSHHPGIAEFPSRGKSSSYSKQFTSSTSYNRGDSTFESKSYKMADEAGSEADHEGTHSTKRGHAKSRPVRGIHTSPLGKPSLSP

H2N-GPRPG^6C (H-GPRPGGGGGGC; also: cross-linked to human albumin microspheres) [Peptide B, reference compound]
fibrinogen binding (in words) (Fibrinogen [1]; absence of thrombin): bound fibrinogen
fibrinogen binding (in words) (Fibrinogen [1]; presence of thrombin): bound fibrinogen

H2N-LVPRGPRPG^5K-MAL (H-LVPRGPRPGGGGGK-{MAL}; also: MAL maleimide linked to human albumin microparticles) [peptide C]
clot formation in plasma (plasma [2]; exposed to thrombin both before (0.6 U/ml, 1 h) and during (0.25 U/ml) incubation with plasma): clot formation occurs
clot formation in plasma (plasma [2]; without thrombin exposure, over the 20 min period): did not result in clot formation
clot formation in plasma vs unmodified control blank microparticles (plasma [3]; thrombin 0.25 U/ml added at the 2 min time point): accelerated clot formation
clot formation in plasma (plasma [3]; without the addition of thrombin): did not form a clot
electrical impedance (final aggregation) vs TCB without microparticles or blank microparticles (Thrombocytopenic blood): greater electrical impedance
clot formation in fibrinogen solution (Fibrinogen [4]; absence of thrombin, fibrinogen 3 mg/ml): neither blank nor microparticles modified with peptide C formed a clot
turbidity decrease (clot formation) vs control unmodified microparticles (Fibrinogen [4]; thrombin 0.032 U/ml added at 2 min): decreased more rapidly
amount of fibrinogen bound to microparticles (Fibrinogen [5]; increasing thrombin concentration (0-0.64 U/mL), all three microparticle concentrations): increased
fibrinogen binding (in words) (Fibrinogen [5]; without thrombin, microparticles 0.7, 5 or 10 mg/ml): do not bind fibrinogen

H2N-LVPRGPRPG^6C (H-LVPRGPRPGGGGGGC; also: cross-linked to human albumin microspheres) [Peptide A]
microspheres that bound fibrinogen (Fibrinogen [1]; first incubated with thrombin (0.16 U/ml, 30 minutes), then mixed with fibrinogen): 86%
microspheres that bound fibrinogen (Fibrinogen [1]; not previously incubated with thrombin, fibrinogen 0.1 mg/ml, 1 hr): 6%

B1: Peptide C (H2N-LVPRGPRPG5K-MAL), fibrinogen binding precursor peptide linked to human albumin microparticles, not exposed to thrombin (peptide)
peptide: H-LVPRGPRPGGGGGK(MAL″)
modifications: also: thioether-linked via maleimide to albumin microparticle sulphydryl
notes: Synthetic peptide immobilised on microparticles of human serum albumin; tested as the intact precursor; also called peptide C modified microparticles; microparticles modified with peptide C
binding result [6]: no binding (tested: 0.1 mg/mL human fibrinogen)
